Among the data in article PMC6382863 are stoichiometry N values, retold here.

In test [1] the target is Bunyamwera virus (BUNV) Gc head domain (aa 478–721) (Bunyamwera virus) (UniProt P04505). In words: crystal structure.
For test [2], the target named is La Crosse virus (LACV) Gc head domain (aa 477–722), tryptic fragment of the variable region (aa 477–911) (La Crosse virus) (UniProt Q8JPR1). In words: crystal structure.

Chain of La Crosse virus (LACV) Gc head domain (aa 477–722), tryptic fragment of the variable region (aa 477–911) (Q8JPR1 477-722): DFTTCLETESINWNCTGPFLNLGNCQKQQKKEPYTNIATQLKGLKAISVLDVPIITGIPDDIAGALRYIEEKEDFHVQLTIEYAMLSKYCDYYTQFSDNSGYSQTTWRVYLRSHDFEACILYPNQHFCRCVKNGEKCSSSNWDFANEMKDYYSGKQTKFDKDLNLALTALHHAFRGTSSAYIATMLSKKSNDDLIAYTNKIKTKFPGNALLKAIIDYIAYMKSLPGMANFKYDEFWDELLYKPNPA
Chain of Bunyamwera virus (BUNV) Gc head domain (aa 478–721) (P04505 478-721): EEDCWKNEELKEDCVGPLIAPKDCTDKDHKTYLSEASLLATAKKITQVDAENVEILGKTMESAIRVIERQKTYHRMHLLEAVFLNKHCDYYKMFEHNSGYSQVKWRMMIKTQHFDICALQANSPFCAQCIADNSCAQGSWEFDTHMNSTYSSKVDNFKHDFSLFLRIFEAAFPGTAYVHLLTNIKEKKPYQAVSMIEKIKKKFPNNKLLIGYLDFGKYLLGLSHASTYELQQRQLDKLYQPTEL

As for “Bunyamwera virus (BUNV) Gc head domain (aa 478–721) (from UniProt P04505 478-721) (domain or fragment)”, in test [1], the stoichiometry N is 3.
In test [2], “La Crosse virus (LACV) Gc head domain (aa 477–722), tryptic fragment of the variable region (aa 477–911) (from UniProt Q8JPR1 477-722) (domain or fragment)” displayed a stoichiometry N of 3.
